From patent publication US20150203577A1 (Chugai, published 2015)
Substitutions are numbered along the chain they refer to.

T1: mouse FcγRII extracellular domain, C-terminal His tag (mouse, UniProt P08101 30-210)
T1 construct: Whole entry named; also called mFcγRII; mFcgRII
T1 sequence: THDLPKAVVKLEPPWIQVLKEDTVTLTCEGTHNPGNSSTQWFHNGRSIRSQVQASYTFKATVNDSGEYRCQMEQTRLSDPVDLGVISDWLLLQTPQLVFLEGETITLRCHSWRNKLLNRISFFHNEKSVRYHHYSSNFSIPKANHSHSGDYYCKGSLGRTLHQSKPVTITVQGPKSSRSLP

T2: mouse FcγRIII extracellular domain, C-terminal His tag (mouse, UniProt P08508 31-215)
T2 construct: Whole entry named; also called mFcγRIII; mFcgRIII
T2 chain: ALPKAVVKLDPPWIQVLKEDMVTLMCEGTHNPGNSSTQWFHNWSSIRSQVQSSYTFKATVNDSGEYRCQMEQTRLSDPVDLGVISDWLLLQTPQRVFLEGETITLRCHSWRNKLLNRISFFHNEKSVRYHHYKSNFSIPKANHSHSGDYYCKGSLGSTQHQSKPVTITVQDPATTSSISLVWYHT

B1: H237-MB563/MRAL-k0 (antibody, mouse IgG1, kappa)
heavy: QVQLQESGPGLVKPSETLSLTCAVSGHSISHDHAWSWVRQPPGEGLEWIGFISYSGITNYNPSLQGRVTISRDNSKNTLYLQMNSLRAEDTAVYYCARSLARTTAMDYWGEGTLVTVSSAKTTPPSVYPLAPGSAAQTNSMVTLGCLVKGYFPEPVTVTWNSGSLSSGVHTFPAVLQSDLYTLSSSVTVPSSTWPSETVTCNVAHPASSTKVDKKIVPRDCGCKPCICTVPEVEWVFIFPPKPKDVLTITLTPKVTCVVVDISKDDPEVQFSWFVDDVEVHTAQTQPREEQFNSTFRSVSELPIMHQDWLNGKEFKCRVNSAAFPAPIEKTISKTKGRPKAPQVYTIPPPKEQMAKDKVSLTCMITDFFPEDITVEWQWNGQPAENYKNTQPIMDTDGSYFVYSKLNVQKSNWEAGNTFTCSVLHEGLHNHHTEKSLSHSPGK
light: not shown
notes: copies: 2 + 2
B2: H237-MB575/MRAL-k0 (antibody, mouse IgG1, kappa)
heavy: B1 heavy with V233E, E234S, W235S, F237T
light: not shown
notes: copies: 2 + 2
B3: H237-MB601/MRAL-k0 (antibody, mouse IgG1, kappa)
heavy: B1 heavy with T229E, V233E, E234S, W235S, F237D
light: not shown
notes: copies: 2 + 2
B4: H237-MB599/MRAL-k0 (antibody, mouse IgG1, kappa)
heavy: B1 heavy with T229E, V233E, E234S, W235F
light: not shown
notes: copies: 2 + 2
B5: H237-MB585/MRAL-k0 (antibody, mouse IgG1, kappa)
heavy: B1 heavy with E234D, W235F
light: not shown
notes: copies: 2 + 2
B6: H237-MB580/MRAL-k0 (antibody, mouse IgG1, kappa)
heavy: B1 heavy with E234S, F237E
light: not shown
notes: copies: 2 + 2
B7: H237-MB571/MRAL-k0 (antibody, mouse IgG1, kappa)
heavy: B1 heavy with V233E, E234S, W235F
light: not shown
notes: copies: 2 + 2
B8: H237-MB597/MRAL-k0 (antibody, mouse IgG1, kappa)
heavy: B1 heavy with T229E, W235S, F237D
light: not shown
notes: copies: 2 + 2
B9: H237-MB565/MRAL-k0 (antibody, mouse IgG1, kappa)
heavy: B1 heavy with W235S, F237E
light: not shown
notes: copies: 2 + 2
B10: H237-MB574/MRAL-k0 (antibody, mouse IgG1, kappa)
heavy: B1 heavy with V233E, E234S, W235S, F237E
light: not shown
notes: copies: 2 + 2
B11: H237-MB577/MRAL-k0 (antibody, mouse IgG1, kappa)
heavy: B1 heavy with E234S, W235F, F237E
light: not shown
notes: copies: 2 + 2
B12: H237-MB596/MRAL-k0 (antibody, mouse IgG1, kappa)
heavy: B1 heavy with T229E
light: not shown
notes: copies: 2 + 2
B13: H237-MB587/MRAL-k0 (antibody, mouse IgG1, kappa)
heavy: B1 heavy with E234D, W235S, F237D
light: not shown
notes: copies: 2 + 2
B14: H237-MB600/MRAL-k0 (antibody, mouse IgG1, kappa)
heavy: B1 heavy with T229E, V233E, E234S
light: not shown
notes: copies: 2 + 2
B15: H237-MB581/MRAL-k0 (antibody, mouse IgG1, kappa)
heavy: B1 heavy with E234S, F237T
light: not shown
notes: copies: 2 + 2
B16: H237-MB576/MRAL-k0 (antibody, mouse IgG1, kappa)
heavy: B1 heavy with E234S, W235F, F237D
light: not shown
notes: copies: 2 + 2
B17: H237-MB578/MRAL-k0 (antibody, mouse IgG1, kappa)
heavy: B1 heavy with E234S, W235F, F237T
light: not shown
notes: copies: 2 + 2
B18: H237-MB584/MRAL-k0 (antibody, mouse IgG1, kappa)
heavy: B1 heavy with V233E, E234D, W235S
light: not shown
notes: copies: 2 + 2
B19: H237-MB579/MRAL-k0 (antibody, mouse IgG1, kappa)
heavy: B1 heavy with E234S, F237D
light: not shown
notes: copies: 2 + 2
B20: H237-MB568/MRAL-k0 (antibody, mouse IgG1, kappa)
heavy: B1 heavy with W235S, S294H
light: not shown
notes: copies: 2 + 2
B21: H237-MB564/MRAL-k0 (antibody, mouse IgG1, kappa)
heavy: B1 heavy with W235S, F237D
light: not shown
notes: copies: 2 + 2
B22: H237-MB588/MRAL-k0 (antibody, mouse IgG1, kappa)
heavy: B1 heavy with E234D, W235S, F237E
light: not shown
notes: copies: 2 + 2
B23: H237-MB586/MRAL-k0 (antibody, mouse IgG1, kappa)
heavy: B1 heavy with E234D
light: not shown
notes: copies: 2 + 2
B24: H237-MB591/MRAL-k0 (antibody, mouse IgG1, kappa)
heavy: B1 heavy with E234D, W235S, S294H
light: not shown
notes: copies: 2 + 2
B25: H237-MB573/MRAL-k0 (antibody, mouse IgG1, kappa)
heavy: B1 heavy with V233E, E234S, W235S, F237D
light: not shown
notes: copies: 2 + 2
B26: H237-MB595/MRAL-k0 (antibody, mouse IgG1, kappa)
heavy: B1 heavy with T229E, W235F
light: not shown
notes: copies: 2 + 2
B27: H237-MB566/MRAL-k0 (antibody, mouse IgG1, kappa)
heavy: B1 heavy with W235S, F237T
light: not shown
notes: copies: 2 + 2
B28: H237-MB598/MRAL-k0 (antibody, mouse IgG1, kappa)
heavy: B1 heavy with T229E, W235S, S263M
light: not shown
notes: copies: 2 + 2
B29: H237-MB567/MRAL-k0 (antibody, mouse IgG1, kappa)
heavy: B1 heavy with W235S, S263M
light: not shown
notes: copies: 2 + 2
B30: H237-MB572/MRAL-k0 (antibody, mouse IgG1, kappa)
heavy: B1 heavy with V233E, E234S
light: not shown
notes: copies: 2 + 2
B31: H237-MB589/MRAL-k0 (antibody, mouse IgG1, kappa)
heavy: B1 heavy with E234D, W235S, F237T
light: not shown
notes: copies: 2 + 2

These binders were tested against T1, mouse FcγRII extracellular domain, … (assay: SPR (Biacore T200); KD of H237-mIgG1/MRAL-k0 / KD of variant).

| relative mFcγRII-binding activity (mIgG1 = 1) | Binder |
| --- | --- |
| 0.2 fold | B1 |
| 0.08 fold | B2 |
| 0.55 fold | B3 |
| 0.7 fold | B4 |
| 0.06 fold | B5 |
| 1.38 fold | B6 |
| 0.22 fold | B7 |
| 1.28 fold | B8 |
| 0.66 fold | B9 |
| 0.27 fold | B10 |
| 2.51 fold | B11 |
| 0.55 fold | B12 |
| 1.33 fold | B13 |
| 1.24 fold | B14 |
| 0.69 fold | B15 |
| 1.54 fold | B16 |

| relative mFcγRII-binding activity (mIgG1 = 1) | Binder |
| --- | --- |
| 0.39 fold | B17 |
| 0.08 fold | B18 |
| 0.89 fold | B19 |
| 0.71 fold | B20 |
| 0.32 fold | B21 |
| 2.01 fold | B22 |
| 0.13 fold | B23 |
| 0.08 fold | B24 |
| 0.43 fold | B25 |
| 0.09 fold | B26 |
| 0.18 fold | B27 |
| 0.41 fold | B28 |
| 0.21 fold | B29 |
| 0.26 fold | B30 |
| 0.23 fold | B31 |

Target: T2, mouse FcγRIII extracellular domain, …
Assay: as above

| relative mFcγRIII-binding activity (mIgG1 = 1) | Binder |
| --- | --- |
| 0.08 fold | B1 |
| 0.05 fold | B2 |
| 0.1 fold | B3 |
| 0.11 fold | B4 |
| 0.03 fold | B5 |
| 0.61 fold | B6 |
| 0.05 fold | B7 |
| 0.54 fold | B8 |
| 0.23 fold | B9 |
| 0.1 fold | B10 |
| 1.19 fold | B11 |
| 0.17 fold | B12 |
| 0.6 fold | B13 |
| 0.25 fold | B14 |
| 0.42 fold | B15 |
| 0.6 fold | B16 |

| relative mFcγRIII-binding activity (mIgG1 = 1) | Binder |
| --- | --- |
| 0.25 fold | B17 |
| 0.02 fold | B18 |
| 0.34 fold | B19 |
| 0.18 fold | B20 |
| 0.11 fold | B21 |
| 1.01 fold | B22 |
| 0.08 fold | B23 |
| 0.02 fold | B24 |
| 0.06 fold | B25 |
| 0.05 fold | B26 |
| 0.1 fold | B27 |
| 0.08 fold | B28 |
| 0.07 fold | B29 |
| 0.07 fold | B30 |
| 0.19 fold | B31 |
